Reference: PMC3818214, “Novel Disulfide Bond-Mediated Dimerization of the CARD Domain Was Revealed by the Crystal Structure of CARMA1 CARD” (PLoS ONE, 2013)

Molecular target: the molecule itself
Assay: SEC-MALS; Superdex 200 HR 10/30, 20 mM Tris HCl, 150 mM NaCl, without DTT; mini-DAWN EOS and Optilab DSP detectors

B1: mouse CARMA1 CARD (amino acids 14-109) with C-terminal His-tag (domain or fragment, UniProt Q8CIS0 14-109, looked up)
chain: TLKDEEEALWDNVECNRHMLSRYINPAKLTPYLRQCKVIDEQDEDEVLNAPMLPSKINRAGRLLDILHTKGQRGYVVFLESLEFYYPELYKLVTGK
notes: CARMA1 (CARD11), mouse, CARD domain, amino acids 14-109; the solution experiments used the plain protein; Model built from residue 22 to 108, loop 64-70 missing; Vector pOKD (home-made); also called CARD11 CARD; not shown: His-tag, C-terminal, kept
  stoichiometry N: 2
